From the supplement of paper PMC9112550, “Optimization of the antimicrobial peptide Bac7 by deep mutational scanning” (BMC Biology, 2022)

tested on: Escherichia coli TOP10; experiment: shrunken log2 fold change of peptide-encoding DNA abundance (4.5 h post-induction vs induction); higher = less antimicrobial activity (less host growth inhibition); conditions: time post-induction: 4.5 h; library: site-saturation at positions 5, 18, 19, 20
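Further: peptides expressed intracellularly from a pBAD plasmid library in pooled LB shake-flask culture, induced with 0.3% L-arabinose, DNA abundance read by NGS, three biological replicates, DESeq2 with apeglm shrinkage.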

Sequence | shrunken log2 fold change
RRIRGRPPRLPRPRPRPRRPPRP | 0.756
RRIRCRPPRLPRPRPRPFWDPRP | 0.00555
RRIRGRPPRLPRPRPRPWDCPRP | -0.0637
RRIRGRPPRLPRPRPRPKSDPRP | 0.584
RRIRKRPPRLPRPRPRPRWLPRP | 0.796
RRIRYRPPRLPRPRPRPPLDPRP | 0.443
RRIRTRPPRLPRPRPRPIDPPRP | -0.201
RRIRIRPPRLPRPRPRPDPIPRP | -0.0427
RRIRKRPPRLPRPRPRPKYIPRP | -0.0449
RRIRVRPPRLPRPRPRPCNWPRP | -0.327
RRIRYRPPRLPRPRPRPKAEPRP | 0.0881
RRIRYRPPRLPRPRPRPIGWPRP | 0.11
RRIRTRPPRLPRPRPRPWRRPRP | 0.496
RRIRVRPPRLPRPRPRPIKGPRP | -0.155
RRIRPRPPRLPRPRPRPPVIPRP | 0.332
RRIRCRPPRLPRPRPRPYCWPRP | -0.331
RRIRKRPPRLPRPRPRPIASPRP | 0.0246
RRIRARPPRLPRPRPRPTTCPRP | 0.0733
RRIRARPPRLPRPRPRPACVPRP | 0.707
RRIRVRPPRLPRPRPRPKADPRP | 0.0681
RRIRWRPPRLPRPRPRPDIKPRP | -0.323
RRIRDRPPRLPRPRPRPWYCPRP | -0.137

Sequence | shrunken log2 fold change
RRIRRRPPRLPRPRPRPYSGPRP | -0.000826
RRIRHRPPRLPRPRPRPMGQPRP | -0.239
RRIRQRPPRLPRPRPRPENEPRP | 0.0608
RRIRIRPPRLPRPRPRPQLKPRP | -0.456
RRIRVRPPRLPRPRPRPWHCPRP | -0.0339
RRIRYRPPRLPRPRPRPRCPPRP | -0.167
RRIRIRPPRLPRPRPRPNWAPRP | 0.0373
RRIRHRPPRLPRPRPRPSSKPRP | -0.0453
RRIRGRPPRLPRPRPRPDPCPRP | 0.624
RRIRIRPPRLPRPRPRPDEFPRP | 0.0764
RRIRKRPPRLPRPRPRPFWKPRP | 0.0342
RRIRNRPPRLPRPRPRPRKNPRP | 0.161
RRIRTRPPRLPRPRPRPVPNPRP | 0.123
RRIRERPPRLPRPRPRPQYLPRP | -0.0574
RRIRHRPPRLPRPRPRPVYSPRP | -0.0167
RRIRARPPRLPRPRPRPDYFPRP | -0.0428
RRIRNRPPRLPRPRPRPFQDPRP | -0.00135
RRIRGRPPRLPRPRPRPATFPRP | 0.326
RRIRNRPPRLPRPRPRPKGYPRP | -0.0233
RRIRCRPPRLPRPRPRPKARPRP | 0.315
RRIRDRPPRLPRPRPRPSKRPRP | -0.273
RRIRYRPPRLPRPRPRPNHTPRP | -0.259

Sequence | shrunken log2 fold change
RRIRKRPPRLPRPRPRPNGTPRP | -0.0678
RRIRKRPPRLPRPRPRPRHEPRP | -0.115
RRIRIRPPRLPRPRPRPVAWPRP | -0.0525
RRIRCRPPRLPRPRPRPGTLPRP | -0.237
RRIRTRPPRLPRPRPRPQEGPRP | -0.0173
RRIRERPPRLPRPRPRPDARPRP | -0.0768
RRIRQRPPRLPRPRPRPCNPPRP | -0.0715
RRIRRRPPRLPRPRPRPWIEPRP | -0.0568
RRIRKRPPRLPRPRPRPIAGPRP | -0.0506
RRIRERPPRLPRPRPRPLIHPRP | -0.522
RRIRNRPPRLPRPRPRPFFVPRP | 0.126
RRIRWRPPRLPRPRPRPVNCPRP | 0.0456
RRIRSRPPRLPRPRPRPNIEPRP | -0.264
RRIRNRPPRLPRPRPRPGIVPRP | 0.367
RRIRARPPRLPRPRPRPMDCPRP | 0.181
RRIRLRPPRLPRPRPRPRALPRP | 2.21
RRIRLRPPRLPRPRPRPGDAPRP | -0.127
RRIRVRPPRLPRPRPRPHVLPRP | -0.067
RRIRFRPPRLPRPRPRPSVYPRP | -0.158
RRIRGRPPRLPRPRPRPETCPRP | 0.613
RRIRLRPPRLPRPRPRPVDLPRP | -0.418
RRIRMRPPRLPRPRPRPKSYPRP | 0.0526

Sequence | shrunken log2 fold change
RRIRMRPPRLPRPRPRPFWLPRP | -0.179
RRIRQRPPRLPRPRPRPHVWPRP | 0.03
RRIRWRPPRLPRPRPRPWYPPRP | 0.0299
RRIRFRPPRLPRPRPRPGIPPRP | -0.183
RRIRARPPRLPRPRPRPIHWPRP | 0.0725
RRIRLRPPRLPRPRPRPCWNPRP | -0.291
RRIRTRPPRLPRPRPRPMYPPRP | 0.0537
RRIRSRPPRLPRPRPRPYHPPRP | -0.00174
RRIRQRPPRLPRPRPRPTMLPRP | -0.339
RRIRRRPPRLPRPRPRPQFSPRP | -0.326
RRIRARPPRLPRPRPRPWCTPRP | -0.284
RRIRTRPPRLPRPRPRPLIIPRP | -0.784
RRIRTRPPRLPRPRPRPRDLPRP | 0.064
RRIRMRPPRLPRPRPRPDDLPRP | 2.58
RRIRSRPPRLPRPRPRPGNAPRP | 0.119
RRIRLRPPRLPRPRPRPVHLPRP | -0.0235
RRIRARPPRLPRPRPRPAAYPRP | 0.412
RRIRVRPPRLPRPRPRPACVPRP | -0.0412
RRIRIRPPRLPRPRPRPISGPRP | -0.0415
RRIRCRPPRLPRPRPRPIKWPRP | -0.343
RRIRLRPPRLPRPRPRPHPSPRP | -0.0856
RRIRLRPPRLPRPRPRPMQDPRP | 0.0525

Sequence | shrunken log2 fold change
RRIRMRPPRLPRPRPRPELRPRP | 2.02
RRIRVRPPRLPRPRPRPARAPRP | 0.566
RRIRNRPPRLPRPRPRPRCLPRP | -0.157
RRIRYRPPRLPRPRPRPCQPPRP | -0.354
RRIRKRPPRLPRPRPRPAQAPRP | 0.281
RRIRLRPPRLPRPRPRPHTPPRP | -0.295
RRIRRRPPRLPRPRPRPTCPPRP | 0.415
RRIRPRPPRLPRPRPRPNARPRP | 0.677
RRIRPRPPRLPRPRPRPSMEPRP | -0.157
RRIRWRPPRLPRPRPRPKYGPRP | 0.085
RRIRKRPPRLPRPRPRPITFPRP | -0.0147
RRIRERPPRLPRPRPRPGITPRP | -0.648
RRIRYRPPRLPRPRPRPAYLPRP | -0.244
RRIRTRPPRLPRPRPRPVRFPRP | 0.0687
RRIRVRPPRLPRPRPRPFDKPRP | -0.0577
RRIRQRPPRLPRPRPRPPIHPRP | -0.0767
RRIRCRPPRLPRPRPRPFFLPRP | -0.512
RRIRVRPPRLPRPRPRPHILPRP | -0.234
RRIRTRPPRLPRPRPRPEVNPRP | 0.131
RRIRLRPPRLPRPRPRPFQKPRP | 0.382
RRIRHRPPRLPRPRPRPEMNPRP | -0.0935
